Patent US20210246204A1 (Alector, published 2021)
Positions count from the first letter of the chain named. Numbers in names are those of the source. Like-named read-outs stand apart in the source and are kept apart here. Values belong to the binder of their own block, whether it stands above or below them.

What was measured:
[1] = biological target: T1, human Siglec-7 on primary human monocyte-derived dendritic cells (human, UniProt Q9Y286 19-467); test: cell-based or functional assay
[2] = biological target: T2, histidine-tagged human Siglec-7 (NovoProtein) (human, UniProt Q9Y286 19-353); test: BLI, antibody captured
T2 construct: Bought protein; also called recombinant human Siglec-7; recombinant Siglec-7; not shown: histidine tag
Outline: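 Antibodies captured on anti-human or anti-mouse IgG Fc biosensors; His-tagged human Siglec-7 flowed at 0–100 nM (200 s association, 900 s dissociation). ka and kd from 1:1 multi-concentration fit; apparent KD = kd/ka.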

[3] = biological target: T1, human Siglec-7 on primary human …; test: cell-based or functional assay; remark: listed apart in the source
[4] = biological target: T2, histidine-tagged human Siglec-7 …; test: BLI (ForteBio), antibody captured
Description: (§1) In this assay, the humanized antibodies were compared directly to S7AB. Briefly, the antibodies were captured on anti-human or anti-mouse IgG Fc Biosensors (Pall ForteBio). Varying concentrations (0-100 nM) of histidine-tagged human Siglec-7 (NovoProtein) were then bound to the captured anti-Siglec-7 surface (200 s association time, 900 s dissociation time). Multi-concentration kinetic analysis was performed using a 1:1 interaction model to extract association and dissociation rate constants (kₐ and kd, respectively) for each antibody. Apparent affinity constants (KD) were calculated from the ratio kd/kₐ.

[5] = biological target: T1, human Siglec-7 on primary human …; test: flow cytometry, primary human dendritic cells
Description: The 12 humanized antibodies of S7AB were evaluated for binding to primary dendritic cells by flow cytometry. Monocytes were isolated from blood from healthy human donors using the RosetteSep™ monocyte isolation antibody cocktail (StemCell Technologies). The isolated monocytes were differentiated into dendritic cells with 100 ng/mL GM-CSF and 100 ng/mL IL-4 (Peprotech). Dendritic cells were incubated with dilutions of the anti-Siglec-7 antibodies for 30 minutes on ice in the dark, followed by a 30-minute incubation with a fluorescently-conjugated anti-human IgG secondary antibody. Cells were washed twice in FACS buffer (PBS+2% FBS, 2 mM EDTA), and flow cytometry was performed on a BD FACS Canto. Data were analyzed using FlowJo software (Ashland, Oreg.).

[6] = biological target: T2, histidine-tagged human Siglec-7 …; test: BLI (ForteBio), antibody captured; Table 2 experiment; antibody captured on anti-IgG Fc Biosensors, 0-100 nM His-tagged Siglec-7
Description: as §1

[7] = biological target: T1, human Siglec-7 on primary human …; test: cell-based or functional assay; remark: listed apart in the source

T1 sequence (Q9Y286 19-467): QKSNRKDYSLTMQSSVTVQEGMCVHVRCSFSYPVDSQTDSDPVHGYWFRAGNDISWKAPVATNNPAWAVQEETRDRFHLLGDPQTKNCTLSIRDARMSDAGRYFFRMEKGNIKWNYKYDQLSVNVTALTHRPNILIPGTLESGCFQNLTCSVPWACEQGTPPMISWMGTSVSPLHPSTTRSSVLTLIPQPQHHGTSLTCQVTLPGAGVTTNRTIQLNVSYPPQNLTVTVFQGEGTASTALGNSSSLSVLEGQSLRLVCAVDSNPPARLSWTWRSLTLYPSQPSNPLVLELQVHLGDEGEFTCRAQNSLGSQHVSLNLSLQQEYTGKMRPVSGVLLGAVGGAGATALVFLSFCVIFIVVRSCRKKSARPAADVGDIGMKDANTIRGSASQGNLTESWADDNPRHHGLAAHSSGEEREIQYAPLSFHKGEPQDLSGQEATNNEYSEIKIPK
T2 sequence (Q9Y286 19-353 limits assumed): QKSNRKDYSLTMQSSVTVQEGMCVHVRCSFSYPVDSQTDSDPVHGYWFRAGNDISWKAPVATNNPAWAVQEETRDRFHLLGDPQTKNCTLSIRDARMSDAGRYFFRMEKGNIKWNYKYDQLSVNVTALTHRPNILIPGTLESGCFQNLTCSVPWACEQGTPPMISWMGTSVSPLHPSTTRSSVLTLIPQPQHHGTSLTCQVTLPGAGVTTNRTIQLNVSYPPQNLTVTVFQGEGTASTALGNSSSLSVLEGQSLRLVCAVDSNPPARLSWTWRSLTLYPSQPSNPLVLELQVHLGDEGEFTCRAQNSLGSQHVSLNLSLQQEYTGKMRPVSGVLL

Receptor downregulation, (EC50) (pM) [1]: 447 pM
Kd [4]: 1.01 nM
koff [4]: 0.000152 s⁻¹
kon [4]: 150000 M⁻¹ s⁻¹
EC50 [5]: 5.6 nM
B5: S7AB-H12 (antibody, V domains shown)
VH: QVQLVQSGAEVKKPGASVKISCKASGYAFTNCWMNWVRQAPGQGLEWIGRIFPGNGHTNYAQKFQGRATLTEDTSTSTAYMELSSLRSEDTAVYYCARDYSDYYFDYWGQGTLLTVSS
VL: DVQMTQSPSSLSASVGDRVTITCRASQDINTYLNWYQQKPGKAPKLLIYYTSRLHSGVPSRFSGSGSGTDYTLTISSLQPEDFATYYCQQGNTLPWTFGQGTKLEIK

Receptor downregulation, (EC50) (pM) [1]: 411 pM
Kd [4]: 1.07 nM
koff [4]: 0.000172 s⁻¹
kon [4]: 160000 M⁻¹ s⁻¹
EC50 [5]: 1.2 nM
B6: S7AB-H11 (antibody, V domains shown)
VH: B5 VH
VL: B5 VL with V2I

Receptor downregulation, (EC50) (pM) [1]: 432 pM
Kd [4]: 0.74 nM
koff [4]: 0.000112 s⁻¹
kon [4]: 150000 M⁻¹ s⁻¹
EC50 [5]: 1.5 nM
B7: S7AB-H9 (antibody, V domains shown)
VH: B5 VH with L114V
VL: B5 VL

More lines, now with the values behind:

B1: S7AB-H8 (antibody, V domains shown)
VH: B5 VH with L114V
VL: B5 VL with V2I
notes: also called parental humanized antibody
Receptor downregulation, (EC50) (pM) [1]: 395 pM
Kd [2]: 1.05 nM
koff [2]: 0.000174 s⁻¹
kon [2]: 166000 M⁻¹ s⁻¹
Fold increase in potency compared to Chimeric Ab [3]: 3 fold
Maximal downregulation (% Siglec-7 remaining) [3]: 18.3%
Receptor downregulation, (EC50) (pM) [3]: 340 pM
koff [4]: 0.000125 s⁻¹
kon [4]: 145000 M⁻¹ s⁻¹
EC50 [5]: 1.5 nM
Kd [6]: 0.86 nM

B2: S7AB-H8.44 huIgG1 N297A (antibody, V domains shown)
VH: B5 VH with I20V, N31A, C32A, N55L, L114V
VL: B5 VL with V2I, A25G, T93I
Maximal downregulation (% Siglec-7 remaining) [7]: 2.9%
Receptor downregulation, (pM, EC50) [7]: 68.6 pM

B3: S7AB-H8.44 huIgG1 SELF (antibody, V domains shown)
VH: B5 VH with I20V, N31A, C32A, N55L, L114V
VL: B5 VL with V2I, A25G, T93I
Maximal downregulation (% Siglec-7 remaining) [7]: < 0.1%
Receptor downregulation, (pM, EC50) [7]: 9.1 pM

B4: S7AB-H8.44 huIgG1 LALAPS (antibody, V domains shown)
VH: B5 VH with I20V, N31A, C32A, N55L, L114V
VL: B5 VL with V2I, A25G, T93I
Maximal downregulation (% Siglec-7 remaining) [7]: 2.8%
Receptor downregulation, (pM, EC50) [7]: 67.3 pM
